Here are results for two molecules from US20260234242A1 (HAINAN SIMCERE ZAIMING PHARMACEUTICAL, published 2026).

Test [1] deals with T1, his-tagged human CDH6 extracellular region protein (hCDH6 ECD-his) (human, UniProt P55285 19-615).
T1 construct: also called Human CDH6-his; hCDH6-his; not shown: his tag
T1 sequence: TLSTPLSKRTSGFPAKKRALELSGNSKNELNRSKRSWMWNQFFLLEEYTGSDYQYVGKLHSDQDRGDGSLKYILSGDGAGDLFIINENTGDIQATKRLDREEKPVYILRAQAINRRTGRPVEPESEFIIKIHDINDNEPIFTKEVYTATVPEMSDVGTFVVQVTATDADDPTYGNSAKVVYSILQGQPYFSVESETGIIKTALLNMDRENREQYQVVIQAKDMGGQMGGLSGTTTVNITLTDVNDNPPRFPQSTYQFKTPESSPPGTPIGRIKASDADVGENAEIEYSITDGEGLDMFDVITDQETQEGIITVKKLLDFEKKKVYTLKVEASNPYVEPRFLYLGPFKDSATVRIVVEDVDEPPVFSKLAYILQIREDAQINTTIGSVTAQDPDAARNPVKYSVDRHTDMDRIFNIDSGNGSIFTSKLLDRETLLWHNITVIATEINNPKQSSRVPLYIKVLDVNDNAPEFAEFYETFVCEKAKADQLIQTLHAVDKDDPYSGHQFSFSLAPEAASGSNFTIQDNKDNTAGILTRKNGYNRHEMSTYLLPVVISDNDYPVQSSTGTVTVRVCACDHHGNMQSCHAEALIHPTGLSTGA
The experiment in a line: SPR Biacore, antibody captured on Protein A. The procedure:
The affinity of the antibody for the antigen was determined by a multi-cycle kinetic method using a BIAcore 8K instrument. In each cycle, the antibody to be tested was captured using a Protein A chip (purchased from GE, Cat. No. 29-1275-56), and then the antigen human CDH6 protein (hCDH6-his, conventionally synthesized) was injected. The association and dissociation processes of the antibody with the antigen protein were recorded, and finally, the chip was regenerated using Glycine pH 1.5, wherein the mobile phase was HBS-EP+ (10 mM HEPES, 150 mM NaCl, 3 mM EDTA, 0.05% surfactant P20, and 1 mM Ca), the flow rate was 30 μL/min, the association time was 240 s, the dissociation time was 300 s, the regeneration time was 30 s, the detection temperature was 25° C., and the antigen concentration was 31.25-1000 nM. The data were analyzed using Biacore 8K analysis software (version No. 2.0) based on the 1:1 binding model to fit the antibody-antigen binding kinetic parameters, including the association rate constant ka, the dissociation rate constant kd, and the equilibrium dissociation constant KD. The affinity values of the control antibody DS-H01L02 were undetectable. Antibodies not shown in the table had undetectable affinity values.
Four hCDH6-1 humanized antibodies with fewer back mutations were selected, and the affinity for human CDH6 protein was further confirmed using Biacore.
In general terms: Surface plasmon resonance follows binding to a sensor surface in real time, without labels.

For test [2], the target named is T1, his-tagged human CDH6 extracellular …. The experiment in a line: ELISA, coated antigen. (In general: An ELISA detects its analyte on a solid surface through an enzyme-linked reagent.)

B1: hCDH6-1-H2L3 (antibody, V domains shown)
VH: EVQLVQSGAEVKKPGSSVKVSCKASGYTFTNYWMHWVRQAPGQGLEWMGDIDPSHSETHYTQKFKDRVTITVDKSTSTAYMELSSLRSEDTAVYYCARGDLGRFDYWGQGTTVTVSS
VL: DIQMTQSPSSLSASVGDRVTITCRASESVSIHGTHLMHWYQQKPGKPPKLLIYAASNLESGVPSRFSGSGSETDFTFTISSLQPEDIATYYCQQSFEDPWTFGGGTKVEIK
notes: Humanized
As usually defined, the Kd is the equilibrium constant for the complex coming apart. A higher Kd goes with lower affinity. Usually koff stands for a measure of how fast the partners let go of each other. For orientation: kon means a measure of how fast the partners come together. Read a high kon as faster complex formation. In general, EC50 refers to the concentration that produces a half-maximal response. A lower EC50 goes with higher potency in that assay. In test [1], B1 showed a Kd of 18 nM, a koff of 0.00821 s⁻¹ and a kon of 457000 M⁻¹ s⁻¹. In test [2], the 50% effective concentration (EC50) worked out at 0.029 nM and the “Max OD450” value amounted to 2.61 OD450.

B2: CHI-CDH6-1 (antibody, human IgG1, kappa, V domains shown)
VH: QVQLQQPGAELVRPGSSVKLSCKASGYTFTNYWMHWVKQRPIEGLEWIGDIDPSHSETHYTQKFKDKATLTVDKSSSTAYMQLSSLTSEDSAVYYCARGDLGRFDYWGQGTTLTVSS
VL: DIVLTQSPASLAVSLGQRATISCRASESVSIHGTHLMHWYQQKSGQPPKLLIYAASNLESGVPARFSGSGSETDFTFNIHPVEEEDAATYFCQQSFEDPWTFGGGTKLEIKR
notes: also called CHI-hCDH6-1; CH1-CDH6-1
On to B2, for which, in test [1], binding was put at a Kd of 11.4 nM, the off-rate constant (koff) was 0.00504 s⁻¹ and the kon came out at 442000 M⁻¹ s⁻¹. In addition, in test [2], the EC50 is 0.032 nM and the “Max OD450” value is 2.59 OD450.
